Molecular target: Nup358-min-GST, human Nup358 residues 2148-2240 (human, UniProt P49792 2148-2240)
Experiment: pull-down

Nup358-min-GST, human Nup358 residues 2148-2240, sequence (P49792 2148-2240): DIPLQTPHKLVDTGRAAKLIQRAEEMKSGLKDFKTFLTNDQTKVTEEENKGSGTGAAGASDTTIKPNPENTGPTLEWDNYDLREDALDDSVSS

B1: human Bicaudal D2 C-terminal cargo-binding domain, wild type (domain or fragment, UniProt Q8TD16 715-804, looked up)
chain: YENEKAMVTETMMKLRNELKALKEDAATFSSLRAMFATRCDEYITQLDEMQRQLAAAEDEKKTLNSLLRMAIQQKLALTQRLELLELDHE
binding result: binds
